Laboratory results taken from the Immune Epitope Database (IEDB).

Columns and labels:
[1] = biological target: HLA-A*02:16; assay: IEDB peptide-MHC binding, purified MHC/competitive/fluorescence; filed as Kd, often an IC50 or EC50 that approximates it; ≥ and ≤ were set here for values at or beyond the usual limits of such assays
[2] = biological target: HLA-B*27:03; assay: as above
[3] = biological target: HLA-A*23:01; assay: as above
[4] = biological target: HLA-A*02:12; assay: as above
[5] = biological target: HLA-B*18:01; assay: as above
[6] = biological target: HLA-B*57:01; assay: as above
[7] = biological target: HLA-A*03:01; assay: as above
[8] = biological target: HLA-A*02:01; assay: as above
[9] = biological target: HLA-B*46:01; assay: as above
[10] = biological target: HLA-A*02:11; assay: as above
[11] = biological target: HLA-A*26:01; assay: as above
[12] = biological target: HLA-A*29:02; assay: as above
[13] = biological target: HLA-B*39:01; assay: as above
[14] = biological target: HLA-B*51:01; assay: as above
[15] = biological target: HLA-B*15:17; assay: as above
[16] = biological target: HLA-B*15:01; assay: as above
[17] = biological target: HLA-A*24:03; assay: as above
[18] = biological target: HLA-B*27:03; assay: IEDB peptide-MHC binding, purified MHC/direct/fluorescence; filed as Kd, often an IC50 or EC50 that approximates it; ≥ and ≤ were set here for values at or beyond the usual limits of such assays
[19] = biological target: HLA-B*18:01; assay: as above
[20] = biological target: HLA-B*57:01; assay: as above
[21] = biological target: HLA-A*03:01; assay: as above
[22] = biological target: HLA-B*46:01; assay: as above
[23] = biological target: HLA-A*26:01; assay: as above
[24] = biological target: HLA-B*39:01; assay: as above; details: source organism: Salmonella enterica subsp. enterica serovar Typhimurium
[25] = biological target: HLA-B*51:01; assay: as above
[26] = biological target: HLA-B*15:01; assay: as above
[27] = biological target: HLA-A*24:03; assay: as above
[28] = biological target: HLA-A*02:19; assay: IEDB peptide-MHC binding, purified MHC/competitive/fluorescence; filed as Kd, often an IC50 or EC50 that approximates it; ≥ and ≤ were set here for values at or beyond the usual limits of such assays
[29] = biological target: HLA-A*68:02; assay: as above
[30] = biological target: HLA-A*02:03; assay: as above
[31] = biological target: HLA-A*02:19; assay: IEDB peptide-MHC binding, purified MHC/direct/fluorescence; filed as Kd, often an IC50 or EC50 that approximates it; ≥ and ≤ were set here for values at or beyond the usual limits of such assays
[32] = biological target: HLA-A*02:16; assay: as above
[33] = biological target: HLA-A*02:12; assay: as above
[34] = biological target: HLA-A*02:01; assay: as above
[35] = biological target: HLA-A*02:11; assay: as above
[36] = biological target: HLA-A*02:03; assay: as above
[37] = biological target: HLA-A*69:01; assay: IEDB peptide-MHC binding, purified MHC/competitive/fluorescence; filed as Kd, often an IC50 or EC50 that approximates it; ≥ and ≤ were set here for values at or beyond the usual limits of such assays
[38] = biological target: HLA-A*69:01; assay: IEDB peptide-MHC binding, purified MHC/direct/fluorescence; filed as Kd, often an IC50 or EC50 that approximates it; ≥ and ≤ were set here for values at or beyond the usual limits of such assays; details: source organism: Rickettsia sibirica 246
[39] = biological target: HLA-A*68:02; assay: as above; details: source organism: Rickettsia sibirica 246
[40] = source organism: Rickettsia typhi str. Wilmington
[41] = source organism: Salmonella enterica subsp. enterica serovar Typhimurium
[42] = source organism: Burkholderia pseudomallei K96243
[43] = source organism: Encephalitozoon cuniculi GB-M1
[44] = source organism: Campylobacter jejuni subsp. jejuni NCTC 11168 = ATCC 700819
[45] = source organism: Shigella boydii CDC 3083-94
[46] = source organism: Bacillus anthracis str. 'Ames Ancestor'
[47] = source organism: Rickettsia sibirica 246

**Q.** With QLEVRSTEV as the sequence, how does the Kd [1, 40] read?
**A.** ≥ 20 µM

**Q.** What about the Kd [2, 40] of the same sequence?
**A.** ≥ 20 µM

**Q.** What about the Kd [3, 40] of the same sequence?
**A.** ≥ 20 µM

**Q.** What about the Kd [4, 40] of the same sequence?
**A.** 0.43 µM

**Q.** And the Kd [5, 40]?
**A.** ≥ 20 µM

**Q.** What about the Kd [6, 40] of the same sequence?
**A.** ≥ 20 µM

**Q.** And the Kd [7, 40]?
**A.** ≥ 20 µM

**Q.** What about the Kd [8, 40] of the same sequence?
**A.** ≥ 20 µM

**Q.** What about the Kd [9, 40] of the same sequence?
**A.** ≥ 20 µM

**Q.** And the Kd [10, 40]?
**A.** ≥ 20 µM

**Q.** And the Kd [11, 40]?
**A.** ≥ 20 µM

**Q.** What about the Kd [12, 40] of the same sequence?
**A.** ≥ 20 µM

**Q.** What about the Kd [13, 40] of the same sequence?
**A.** ≥ 20 µM

**Q.** What about the Kd [14, 40] of the same sequence?
**A.** ≥ 20 µM

**Q.** What about the Kd [15, 40] of the same sequence?
**A.** ≥ 20 µM

**Q.** And the Kd [16, 40]?
**A.** ≥ 20 µM

**Q.** And the Kd [17, 40]?
**A.** ≥ 20 µM

**Q.** LAMLVLHQV was tested. Which Kd [18, 41] did it give?
**A.** ≥ 20 µM

**Q.** What about the Kd [19, 41] of the same sequence?
**A.** ≥ 20 µM

**Q.** What about the Kd [20, 41] of the same sequence?
**A.** ≥ 20 µM

**Q.** What about the Kd [21, 41] of the same sequence?
**A.** ≥ 20 µM

**Q.** And the Kd [22, 41]?
**A.** ≥ 20 µM

**Q.** And the Kd [23, 41]?
**A.** ≥ 20 µM

**Q.** What about the Kd [24] of the same sequence?
**A.** ≥ 20 µM

**Q.** And the Kd [25, 41]?
**A.** 0.416 µM

**Q.** And the Kd [26, 41]?
**A.** ≥ 20 µM

**Q.** What about the Kd [27, 41] of the same sequence?
**A.** ≥ 20 µM

**Q.** DELWRGLLA was tested. Which Kd [28, 42] did it give?
**A.** ≥ 20 µM

**Q.** And the Kd [1, 42]?
**A.** ≥ 20 µM

**Q.** And the Kd [2, 42]?
**A.** ≥ 20 µM

**Q.** And the Kd [3, 42]?
**A.** ≥ 20 µM

**Q.** What about the Kd [4, 42] of the same sequence?
**A.** ≥ 20 µM

**Q.** What about the Kd [5, 42] of the same sequence?
**A.** 0.0813 µM

**Q.** What about the Kd [6, 42] of the same sequence?
**A.** ≥ 20 µM

**Q.** What about the Kd [7, 42] of the same sequence?
**A.** ≥ 20 µM

**Q.** And the Kd [8, 42]?
**A.** ≥ 20 µM

**Q.** And the Kd [29, 42]?
**A.** ≥ 20 µM

**Q.** And the Kd [9, 42]?
**A.** ≥ 20 µM

**Q.** What about the Kd [11, 42] of the same sequence?
**A.** ≥ 20 µM

**Q.** And the Kd [13, 42]?
**A.** ≥ 20 µM

**Q.** What about the Kd [14, 42] of the same sequence?
**A.** ≥ 20 µM

**Q.** What about the Kd [16, 42] of the same sequence?
**A.** ≥ 20 µM

**Q.** And the Kd [17, 42]?
**A.** ≥ 20 µM

**Q.** What about the Kd [30, 42] of the same sequence?
**A.** ≥ 20 µM

**Q.** Which results are given for MPFDPSELV?
**A.** Kd [31, 43]: ≥ 20 µM; Kd [32, 43]: ≥ 20 µM; Kd [18, 43]: ≥ 20 µM; Kd [33, 43]: ≥ 20 µM; Kd [19, 43]: ≥ 20 µM; Kd [20, 43]: ≥ 20 µM; Kd [21, 43]: ≥ 20 µM; Kd [34, 43]: ≥ 20 µM; Kd [22, 43]: ≥ 20 µM; Kd [35, 43]: ≥ 20 µM; Kd [23, 43]: ≥ 20 µM; Kd [25, 43]: 0.074 µM; Kd [26, 43]: ≥ 20 µM; Kd [27, 43]: ≥ 20 µM; Kd [36, 43]: ≥ 20 µM

**Q.** What does the source list for KGMKIQHFK?
**A.** Kd [28, 44]: ≥ 20 µM; Kd [1, 44]: ≥ 20 µM; Kd [2, 44]: ≥ 20 µM; Kd [3, 44]: ≥ 20 µM; Kd [4, 44]: ≥ 20 µM; Kd [5, 44]: ≥ 20 µM; Kd [6, 44]: ≥ 20 µM; Kd [7, 44]: 0.0679 µM; Kd [8, 44]: ≥ 20 µM; Kd [37, 44]: ≥ 20 µM; Kd [29, 44]: ≥ 20 µM; Kd [9, 44]: ≥ 20 µM; Kd [10, 44]: ≥ 20 µM; Kd [11, 44]: ≥ 20 µM; Kd [12, 44]: ≥ 20 µM; Kd [13, 44]: ≥ 20 µM; Kd [14, 44]: ≥ 20 µM; Kd [16, 44]: ≥ 20 µM; Kd [17, 44]: ≥ 20 µM; Kd [30, 44]: ≥ 20 µM

**Q.** How did the Kd [28, 45] turn out when RNNDPTLPY was run?
**A.** ≥ 20 µM

**Q.** And the Kd [1, 45]?
**A.** ≥ 20 µM

**Q.** And the Kd [2, 45]?
**A.** ≥ 20 µM

**Q.** What about the Kd [3, 45] of the same sequence?
**A.** ≥ 20 µM

**Q.** What about the Kd [4, 45] of the same sequence?
**A.** ≥ 20 µM

**Q.** What about the Kd [5, 45] of the same sequence?
**A.** ≥ 20 µM

**Q.** What about the Kd [6, 45] of the same sequence?
**A.** ≥ 20 µM

**Q.** What about the Kd [8, 45] of the same sequence?
**A.** ≥ 20 µM

**Q.** What about the Kd [37, 45] of the same sequence?
**A.** ≥ 20 µM

**Q.** And the Kd [29, 45]?
**A.** ≥ 20 µM

**Q.** What about the Kd [9, 45] of the same sequence?
**A.** ≥ 20 µM

**Q.** What about the Kd [11, 45] of the same sequence?
**A.** ≥ 20 µM

**Q.** And the Kd [13, 45]?
**A.** ≥ 20 µM

**Q.** What about the Kd [14, 45] of the same sequence?
**A.** ≥ 20 µM

**Q.** What about the Kd [15, 45] of the same sequence?
**A.** ≥ 20 µM

**Q.** What about the Kd [17, 45] of the same sequence?
**A.** ≥ 20 µM

**Q.** What about the Kd [30, 45] of the same sequence?
**A.** ≥ 20 µM

**Q.** What does the source list for MTQNISNDK?
**A.** Kd [28, 46]: ≥ 20 µM; Kd [1, 46]: ≥ 20 µM; Kd [2, 46]: ≥ 20 µM; Kd [4, 46]: ≥ 20 µM; Kd [5, 46]: ≥ 20 µM; Kd [6, 46]: ≥ 20 µM; Kd [7, 46]: 6 µM; Kd [8, 46]: ≥ 20 µM; Kd [37, 46]: ≥ 20 µM; Kd [29, 46]: ≥ 20 µM; Kd [9, 46]: ≥ 20 µM; Kd [10, 46]: ≥ 20 µM; Kd [11, 46]: ≥ 20 µM; Kd [12, 46]: ≥ 20 µM; Kd [13, 46]: ≥ 20 µM; Kd [14, 46]: ≥ 20 µM; Kd [15, 46]: ≥ 20 µM; Kd [16, 46]: ≥ 20 µM; Kd [17, 46]: ≥ 20 µM; Kd [30, 46]: ≥ 20 µM

**Q.** What does the source list for APVESMALF?
**A.** Kd [15, 47]: 15.1 µM; Kd [31, 47]: ≥ 20 µM; Kd [32, 47]: ≥ 20 µM; Kd [18, 47]: ≥ 20 µM; Kd [33, 47]: ≥ 20 µM; Kd [19, 47]: ≥ 20 µM; Kd [20, 47]: ≥ 20 µM; Kd [21, 47]: ≥ 20 µM; Kd [34, 47]: ≥ 20 µM; Kd [38]: ≥ 20 µM; Kd [39]: ≥ 20 µM; Kd [22, 47]: ≥ 20 µM; Kd [35, 47]: ≥ 20 µM; Kd [25, 47]: ≥ 20 µM; Kd [26, 47]: ≥ 20 µM; Kd [36, 47]: ≥ 20 µM
